Results taken from the DeepSol protein solubility set.

Experiment: soluble on expression in E. coli; label from the status in PepcDB or PDB records

Sequence	soluble on expression in E. coli
MADHNNTPPFDLTKLDHYIKYQPREEAEDFFVHVEVKVLGKGSSPLEISFSTSVYEFVWEDEDCYELVELYEFFTEDAGIDAFEAQFLVNDLILYVNKTTRPLDEDFTGVFKLMAEVTLKPVQLNHAGSQKTESQQP	soluble
MADIDNKEQSELDQDLEDVEEVEEEETGEETKIKARQLTVQMMQNPQILAALQERLDGLVDTPTGYIESLPKVVKRRVNALKNLQVKCAQIEAKFYEEVHDLERKYAVLYQPLFDKRFEIINAIYEPTEEECEWKPDEEDEVSEELKEKAKIEDEKKDEEKEDPKGIPEFWLTVFKNVDLLSDMVQEHDEPILKHLKDIKVKFSDAGQPMSFVLEFHFEPNDYFTNEVLTKTYRMRSEPDDSDPFSFDGPEIMGCTGCQIDWKKGKNVTLKTIKKKQKHKGRGTVRTVTKTVSNDSFFNFFAPPEVPENGDLDDDAEAILAADFEIGHFLRERIIPRSVLYFTGEAIEDDDDDYDEEGEEADEGYQLFEEVKSCSKLFQRWLQ	soluble
MADKSAYMGAGGYGSGYMGSNASSSGYAREDYAQGGNGGGQQQQNQGSGGNTNPGGQVFKARTDQSCYLGP	not soluble
MADKYLTQSPAGEFVMFASDDGEVRVECRFEQETLWLPQATIANLYQITPQAVTQHIKAIYEEGELEQNATCKSYLQVQQEGSRQVSRNRLHYSLPVILAVGYRVRSPRGTQFRQWATQTLQKYLIKGFVMDDERLKNPPVGSSAVPDYFDEMLERIRDIRASERRVYLRVREIFALAADYQPSLKETTQFFQTIQNKLHFACTGHTAAELIHQRADASQPHMGLTSYKGEEVRKDDVTVAKNYLTQDEVSELNRVVNMWLDFAEDQARRRQQIFLRDWQDKLDQFLQFNDREVLQGAGKVTKKMADEKAQAEYSQFAEQQRRLKEAEGEKDIAGLLQWETEPKK	not soluble
MADMKNKYDVKRIIPDELSESLDIFLKNYSETGLSDYNTYLFYGFILKSYKLPRENRYSIKLLVKELQNRGLKVTLIINIYYHALNCLALNDGLKIYGEDFLI	not soluble
MADPNWAYAPPTNYYADHSIAKPIMISGGHPSQDQGHSPKSESFGQSVTTAFNGMVDNLVGSPSSSVQQRNYFTTTPFPISRSPNDRNDDKIMGNGSYGVPIPIPQDGVPQGTPDFQMTPFLQQGGHLIGGSPNGPVQVSGNWYSGGAGIFSTMQQADPSNGMPGMAAEFVNNENGMPGPNGMHQQAMISGSPPFPYQNMMNLTTSFGAMGLGPQQIQQRDPQMFQQPILHEPIQGMAQNGFGQQVFFTQMQNQQHPQGQAQQQLQQLAQQHQQQQNSQQFFGQGPNGMGNGGVMNDWSQRSFGMPQQQAQQNGLPPNFSQNPPRRRGPEDPNGQTPKTLQDIKNNVIEFAKDQHGSRFIQQKLERASLRDKAAIFTPVLENAEELMTDVFGNYVIQKFFEFGNNEQRNQLVGTIRGNVMKLALQMYGCRVIQKALEYVEEKYQHEILGEMEGQVLKCVKDQNGNHVIQKVIERVEPERLQFIIDAFTKNNSDNVYTLSVHPYGCRVIQRVLEYCNEEQKQPVLDALQIHLKQLVLDQYGNYVIQHVIEHGSPSDKEQIVQDVISDDLLKFAQHKFASNVIEKCLTFGGHAERNLIIDKVCGDPNDPSPPLLQMMKDPFANYVVQKMLDVADPQHRKKITLTIKPHIATLRKYNFGKHILLKLEKYFAKQAPANSSNSSSNDQIYEHSPFDIPLGADFSNHPF	not soluble
MADTLGKSELEVIKPQKREIRKGQVRKHIITVKVRNEMGVLARIATLIAGKGYNIEGLSVGETHEKGISRMTIEVIGDDIVIEQVVKQLRRLIDTLKVSDLTDVPHVERELALIKVYTPSSRARDEVLRITEIFRGKVVDVSPDTYTIEVTGDEDKINAMIELLKPFGIKEMARTGKVAMRREMSIKEEENELEHHHHHH	not soluble
MADTTILDTTCSSTLAANVEFSHATDSAIGISLKNATITEAEGVPNLKETGYDCVRYMGTCNGGQIYLGRERKKLKDYVAIKKFAIDDVDDYAAIAKESSNLRLMHHPNIIELCECFVYERSIYQITPAMNLGSLFDIVFEYMKWGINEKSAAAITRQLLDALSYLHQRRYIHRDLKPKHILIDSSGNVKLSGFRFMIELNHHLDCVFEFDAHLQNQLYYLAPEVLAQNIHGYTSKSDIYMLGISICEAINGVMPFGELEPLEMLHRKLNGQVPRPVDMISLKDDQKMGLDISHRPQEHLTRRFSKEMHEFIANCLDYDPQQRGSASDLKSSAWLGSKIHKNLGPVDVRQELNLDYAHFDLSLWEQEPLIPMEPDQKYEIVFDYSPIS	not soluble
MADWVTGKVTKVQNWTDALFSLTVHAPINPFTAGQFTKLGLEIDGERVQRAYSYVNAPDNPNLEFYLVTVPQGKLSPRLAALKPGDEVQVVSDASGFFVLDEVPDCETLWMLATGTAIGPYLSILQYGQDVARFKNLVLVHAARFAADLSYLPLMLELQQRYEGKLRIQTVVSRENVPGSLTGRVPALIENGELEKAVGLPMDKETSHVMLCGNPQMVRDTQQLLKETRQMTKHLRRRPGHMTAEHYW	not soluble
MAEDSNSSESIIVNVTGDDNKSALFGKYDLGKLLGSGAFAKVYQAEDLQNGGESVAIKVVQKKRLKDGLTAHVKREISVMRRLRHPHIVLLSEVLATKTKIYFVMELAKGGELFSRVTSNRFTESLSRKYFRQLISAVRYCHARGVFHRDLKPENLLLDENRDLKVSDFGLSAMKEQIHPDGMLHTLCGTPAYVAPELLLKKGYDGSKADIWSCGVVLFLLNAGYLPFRDPNIMGLYRKIHKAQYKLPDWTSSDLRKLLRRLLEPNPELRITVEEILKDPWFNHGVDPSEIIGIQADDYDLEENGKILNAFDLISSASSSNLSGLFGNFVTPDHCDQFVSDESTAVIMRKVEEVAKQLNLRIAKKKERAIKLEGPHGVANVVVKVRRLTNELVMVEMKNKQRDVGLVWADALRQKLRRLINQPVYKVPDKP	not soluble
MAEETPPIVELAEWFQTPPGQYVLAWEQAQFDEAVADIFGYYAWQVGLAEPNLLRANRMPFKAWVGAGVPPPELAQGWQACVAAAPEALPFESQSVDLLVLPHAFECAEAPHLVLREVERVLVPEGRVVISGFNPWSLWGARNLMPGMEAWLPLPLSAQVALPRLKDWFKLLSFEVERGRFGCYAPACRTDKWLRRWRFMERYGQRWWGLGGAVYVVTATKKVAAMRLIGPAWKTRRKRAQAASVVVNRQADDPGRLEHHHHHH	not soluble
MAEFASAEFDRMLAEARSMLDAMRSGRSAPSDEEEVKGVGEAADGRVTVTVNSSGLLESVELNPRLLRLPAEEIGEHIVTAVNAALQDFRTKANQAVGAASVDLNALAASMQELQDQSVRQMAQIGQAFNELLTKLDGMR	not soluble
MAEKLNFEELNSMQRYSQFAVFRAIPGALGSDRAEIVAQAQSFFDGLETAGKVEVRGIYDLAGCRAEADFMIWWIAEEFEEIQAAFARFRRETVLGQVSEVAWLGNSLHRPAEFNRSHLPSFIMGEIPGDWITVYPFVRSYDWYIMDPQKRRKILAEHGQAARDFPDVRANTVPAFALGDYEWMLAFEAPRLDRIVDLMHKMRYTEARLHVREETPFFTGRRVSEVSELVNVLP	not soluble
MAEKRTVRPFAGTERRAKGWIQEAALRMLNNNLHPDVAERPDELIVYGGIGKAARNWECYEAIVDTLLRLENDETLLIQSGKPVAVFRTHPDAPRVLIANSNLVPAWATWDHFHELDKKGLIMYGQMTAGSWIYIGSQGIVQGTYETFAEVARQHFGGTLAGTITLTAGLGGMGGAQPLAVTMNGGVCLAIEVDPARIQRRIDTNYLDTMTDSLDAALEMAKQAKEEKKALSIGLVGNAAEVLPRLVETGFVPDVLTDQTSAHDPLNGYIPAGLTLDEAAELRARDPKQYIARAKQSIAAHVRAMLAMQKQGAVTFDYGNNIRQVAKDEGVDDAFSFPGFVPAYIRPLFCEGKGPFRWVALSGDPEDIYKTDEVILREFSDNERLCHWIRMAQKRIKFQGLPARICWLGYGERAKFGKIINDMVAKGELKAPIVIGRDHLDSGSVASPNRETEGMKDGSDAIADWPILNALLNAVGGASWVSVHHGGGVGMGYSIHAGMVIVADGTKEAEKRLERVLTTDPGLGVIRHADAGYELAIRTAKEKGIDMPMLK	soluble
MAEKTYSGFVAIVGKPNVGKSTLLNNLLGVKVAPISPRPQTTRKRLRGILTEGRRQIVFVDTPGLHKPMDALGEFMDQEVYEALADVNAVVWVVDLRHPPTPEDELVARALKPLVGKVPILLVGNKLDAAKYPEEAMKAYHELLPEAEPRMLSALDERQVAELKADLLALMPEGPFFYPEDYAKSDQTFGEWVAEILREEAMKRLWHEVPYAVATKVEEVAERENGVLYIKAILYVERPSQKAIVIGEGGRKIKEIGQATRKQLEALLGKKVYLDLEVKVYPDWRKDPEALRELGYRSSVG	soluble
MAELLPLSPVPLYTQLKELLRERILDGTYPSHSRMPSESELGKAFDVSRITVRQALGDLQKEGLIFKIHGKGTFVAKPKAFQNVSTLQGLGESMTQMGYEVINRLRSFRHVPANALVAARLQVEEGSLVTEIRRVRLINREPVSLELTWLPKAVGEKLEKADLVTRDIFLLLENDCGIALGHADLAIDAVLADSDLTQALDVEEGSPIMRIERLTHAADGTPLDFEHLYYRGDAFQYRLRIDRQKGGKA	not soluble
MAELNFKAIEEKWQKRWLEAKIFEPNIRDKPKEKKFYITVAFPYLSGHLHVGHARTYTIPDVIARFKRMQGYNVLFPMAWHITGSPIVGIAERIKNRDPKTIWIYRDVYKVPEEILWTFEDPINIVKYFMKAAKETFIRAGFSVDWSREFYTTSLFPPFSKFIEWQFWKLKEKGYIVKGAHRVRWDPVVGTPLGDHDLMEGEDVPILDYIIIKFELRENGEVIYLPAATLRPETVYGVTNMWVNPNATYVKAKVRRKDKEETWIVSKEAAYKLSFQDREIEVIEEFKGEKLIGKYVRNPVSGDEVIILPAEFVDPDNATGVVMSVPAHAPFDHVALEDLKRETEILEKYDIDPRIVENITYISLIKLEGYGDFPAVEEVNKLGIKSQKDKEKLEQATKTIYKAEYHKGIFKVPPYEGKPVQEVKEAIAKEMLEKGIAEIMYEFAEKNVISRFGNRAVIKIIHDQWFIDYGNPEWKEKARKALERMKILPETRRAQFEAIIDWLDKKACARKIGLGTPLPWDPEWVIESLSDSTIYMAYYTISRHINKLRQEGKLDPEKLTPEFFDYIFLEEFSEDKEKELEKKTGIPAEIIHEMKEEFEYWYPLDWRCSGKDLIPNHLTFFIFNHVAIFREEHWPKGIAVNGFGTLEGQKMSKSKGNVLNFIDAIEENGADVVRLYIMSLAEHDSDFDWRRKEVGKLRKQIERFYELISQFAEYEVKGNVELKDIDRWMLHRLNKAIKETTNALEEFRTRTAVQWAFYSIMNDLRWYLRRTEGRDDEAKRYVLRTLADVWVRLMAPFTPHICEELWEKLGGEGFVSLAKWPEPVEEWWNETIEAEEEFIRSVMEDIKEIIEVAKIENAKRAYIYTAEDWKWKVAEVVSEKRDFKSSMEELMKDSEIRKHGKEVAKIVQKLIKERTFDVKRINEEKALREAKEFMEKELGIEIIINPTEDKGGKKKQAMPLKPAIFIE	soluble
MAENFVVVDGGVVAPKGFKANGHKDRKYGAALIYSEADAVAAGVFTTNKVYAHPVALSKDTLVNNNVFRAIVANSGNANCFTKGGMEDAELLVKKAAELLKIPENQVLSASTGVIGRKMPMDIISLEVERAFENITMESSNENASKAIMTTDAFPKTVAVEFEVNGKSVRIGGIAKGAGMIAPNMLHATMLGFITTDIEISKEDLTNSLQKATDESFNNAVVDGDMSTNDTVYVLANAQSGVKYTDCKEEFDHALTYVSKELAKMIVSDGEGAKKLIEATVFGAETKEDAKKASMSIVRSLLLKTAVFGADPNWGRIAAAVGYSGAEMDMNNFDIIISDISSEKQAILVKAGEQIADCGTPELKLAEEIMKEDKIKIIVDLKMGSFENTAFGCDLGYDYVKINSEYTTLEHHHHHH	not soluble
MAEPVRLGRKRPLPVCPNPLFVRWLTEWRDEAASRGRHTRFVFQKALRSLQRYPLPLRSGKEAKILQHFGDRLCRMLDEKLKQHLASGGD	soluble
